These results are taken from the nanobody polyreactivity screen of Harvey et al. (2022).

The data set can be described thus: yeast display, Sf9 membrane polyspecificity reagent, FACS + sequencing; frameworks hold sequencing errors. Put shortly: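 Nanobodies from a synthetic yeast display library (Saccharomyces cerevisiae BJ5465), induced 36–48 hours with galactose, were stained 1 hour at 4 °C with 10% biotinylated, detergent-solubilized Sf9 membrane reagent, enriched on streptavidin microbeads, then FACS-sorted. Anti-HA (expression) and streptavidin (reagent binding) fluorescence set low and high (top ~1%) gates. Polyreactivity labels come from the gate of origin. Genes were colony-PCR amplified, MiSeq 2 × 250 sequenced and filtered by CDR length.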
With “QVQLVESGGGLVQAGGSLRLSCAASGFTFGYYAMGWYRQAPGKERELVAAISSSGGRTYYADSVKGRFTISRDNAKNTVYLQMNSMKPEDTAVYYCAAVYIRYPIQYSLLRYDYWGQGTQVTVSA”, the “polyreactivity (PSR sort gate)” value is listed as “high polyreactivity”.

On to “QVQLVESGGGLVQAGGSLRLSCAASGIIFSSYAMGWYRQAPGKERELVADISYTGGSTYYADSVKGRFTISRDNAKNTVYLQMNSLKPEDTAVYYCAAGVYLHYSVDYWGQGTQVTVSS”, for which the “polyreactivity (PSR sort gate)” value is listed as “low polyreactivity”. With “QVQLVESGGGLVQAGGSLRLTCAASGGTFRRYTMGWYRQAPGKERELVAVISRSGGSTYYADSVKGRFTISRDNAKNTVYLQMNRLKPEDTAVYYCAVVYYNGYDWGQGTQVTVSS” the entry was “high polyreactivity”. With “QVQLVESGGGLVQAGGSLRLSCAASGSTFYGYAMGSYRQAPGKERELVAAISYSGSSTYYADSVKGRFTISRDNAKNTVYLQMNSLKPEDTAVFYCAVDDTHPFGPDGGGDYWGQCTQVTVSS” the entry was “low polyreactivity”. With “QVQLVESGGGLVQAGGSLRLSCAASGRIFKYYAMGWYRQAPGKERELVSTISRGGGSTFYADSVKGRFTISRDNAKNTVYLQMNSLKPEDTAVYYCAVDVTFKRWYSTASSTHDYWGQGTQVTVSS” the entry was “high polyreactivity”. As to “QVQLVESGGGLVQAGGSLRLSCAASGSTFYYYAMGWYRQAPGKERELVAAITSGGSTDYADSVKGRFTISRDNAKNTVYLQMKSLKPEDTAVYYCAKDSQSYTREAYYYWGQGTQVTVSS”, the “polyreactivity (PSR sort gate)” value is recorded as “low polyreactivity”. With “QVQLVESGGRLVQAGGSLRLSGAASGRTFAKYAMGWYRQAPGKERELVAAINSSGDSTYYADSVKGRFTISRDNAKNTVYLQMNSLKPEDTAVYYCATRYRSSQWYSPYKYDYWGQGTQVTVSS” the entry was “low polyreactivity”; with “QVQLVESGGGLVQAGGSLRLSCAASGGTFYRYAMGWYRQAPGKEREFVASITQRGGRTYYADSVKGRFTISRDNAKNTVYLQMNSLKPEDTAVYYCAVEYYNYPNSRRYDYWGQGTQVTVSS”, “high polyreactivity”. The result for “QVQLVESGGRLVQAGGSLRLSCAASGFTFRYYAMGWYRQAPGKERELVAAITWSGGRTYYADSVKGRFTISRDNAKNTVFLQMNSLKPEDTAVYSSNTPSLWYGEDYWGHGTQVTVSS” reads “high polyreactivity”; that for “QVQLVESGGGLVQAGGSLRLSCAASGRTFYRSAMGWYRQAPGKERELVAAISSSGGRTYYADSVKGRFTISRDYAKNTVYLQMNSLKPEDTAVYYCNAAPSWSTSFDSWGQGTQVTVSS”, “high polyreactivity”; that for “QVQLVESGGGLVEAGGSLRLSCAASGRIFWGNAMGWYRPAPGKERELVAAITRGGSTNYADSVKGRFTISRDNAKNTVYLQMKSLKPEDTAVYYCAARTRSRGNSWTYDYWGQGTQVTVSS”, “high polyreactivity”. As for “QVQLVESGGGLVQAGGSLRLRCAASGITTRTYAMGWYRQAPGKERELVAAISDSGDRTYYADSVKGRFTISRDKAKNTVYFQMNSVKPEDTAVYYCAVDGPGPRCEFWGQGTKVTVSS”, the “polyreactivity (PSR sort gate)” value is given as “low polyreactivity”. With “QVQHVESGGGLVQAGGSLRLSCDASGRIFAWYAMGWYRHAPGKERELVASISSGGRTNYADSVKGRFTISRDIAKNTVYLQMNSLKPVDTAVYYCNVAIVWPWYGRWFQEYDYWGQGTQVTVSS” the entry was “low polyreactivity”; with “QVQLVESGGGLVQAGGSLRLSCAASGLIFDKYAMGWYRQAPGKERELVAAITRSSGTTYYADSVKGRFTISRDNAKNTVYLQMNSLKPEETAVYYCAARFIWGYWGVGSYYWGQATQVTVSS”, “low polyreactivity”.

“QVQLVESGGGLVQAGGSLRLSCAASGRIFRWYAMGWYRQAPGKERELVATISSSGRTNYADSVKGRFTISRDNAKNTVYLQMNSLKPEETAVYYCNADGGDWFGYVGMDYWGQGTQVTVSS”: the “polyreactivity (PSR sort gate)” value is “high polyreactivity”.

For the sequence “QVQLVESGGGLVQAGGSLRLSCAASGLIFYSNAMGWYRQAPGKERELVATISGSTGTTNYADSVKGRFTISRDNAKNTVYLQMNSLKPEDTAVYYCAAEWRRYEYADSWEYDYWGQGTQVTVSS”, the “polyreactivity (PSR sort gate)” value is “low polyreactivity”. The result for “QVQLVESGGGLVQAGGSLRLSCAASGRTLLKYAMGWYRQATGKEREFVAAITRSGSSTYYADSVKGRFTISRDNAKNTVYLQMNSLKPEDTAVYYCAARLYRVTLDYWGQGTQVTVSS” reads “low polyreactivity”; that for “QVQLVESGGGIVQAGGSIRLSCAASGRIFRYYAMGWYRQAPGKERELVATISRSGGSTFYAESVKGRFTISRDNAKNTVYLQMNSLIPEDTAVYYCNARYQTGGYGYWGQGTQVTVSS”, “high polyreactivity”. With “QVQLVESGGGLVQAGGSLRLSCAASGRTFYQYAMGWYRQAPGKERELVAAISRSGTSTYYADSVKGRFTISRDNAKNTVYLQMNSLKPEDTAVYYCYVLRYDYWGQGTQVTVSS” the entry was “high polyreactivity”; with “QVQLQESGGGLVQAGGSLRLSCAASGSIYDDTYMGWSRQAPGKERELVATIDSGSTTNYADSVKGRITISRDNAKNTVYLQMNSLKPEDTAVYYCAAADSHIDYFDYWGQGTQVTVSS”, “low polyreactivity”; with “QVQLVESGGGLVQAGGSLRLSCAASGIIFRPYTMGWYRQAPGKERELVAAISQSGGRTYYADSVKGRFTISRDNAKNTVYLQMNSLKPEDTAVYYCNVLGSYSYYGGNDLWYYYWGQGTQVTVSS”, “high polyreactivity”. On to “QVQLVESGGGLVQAGGSLRLSSAASGSIFGSYAMGWYRQAPGKERELVAAITSGGSTYADSVKGRFTISRDNAKNTVYLQMNSLKPEDTAVYYCNAKFYQSTSNLVQSEYDYWGQGTQVTVSS”, for which the “polyreactivity (PSR sort gate)” value is “low polyreactivity”.

Consider “QVQLVESGGGLVQAGCSLRLSCAASGSIFALYDMGWYRQAPGKERELVAAISYRGGRTYYADSVKGRFTISRDNAKNTVYLQMNSLKPEDTAVYYCATDFPGNFDYWGQGTQVTVSS”, for which the “polyreactivity (PSR sort gate)” value is “low polyreactivity”. With “QVQLVESGGGLVQAGGSLRLSCAASGRIISYNDMGWYRPAPGKERELVAAISWGGGSTYYADSVKGRFTISRDNAKNTVYLQMNSLKPEDTAVYYCSKGWYRIKRNDYWGQGTQVTVSS” the entry was “low polyreactivity”; with “QVQLVESGGGLVQAGGSLRLSCAASGSIFSENAMGWYRQAPGKERELVADITDGGGSTYYADSVKGRFTISRDNAKNTVYLQMNSLKPEDTAVYYCNAQIFFFAPWYYEYDYWGQGTQVTVSS”, “low polyreactivity”. The result for “QVQLVESGGGLVQAGGSLRLSCDASGITSHWYVMGWYRQAPGKERELVAAINSSGGRTSYADSVKGRFTISRDNAKNTVYLQMNSLKPEYTAVYYCAAGYTHSYFLGATGKVDYWGQGTQVTVSS” reads “low polyreactivity”; that for “QVHLVESVGGLVQAGGSLSLSCAASGLIFDGYAMGWYRQAPGKERDLVAAITWRGGRTYADSVKGRFTISRDNAKNTVYLQMNSLQPEVTAVYYCAVRRWGTSFVEDDYWGQGTQVTVSS”, “low polyreactivity”; that for “QVQLVESGGGLVQAGGSLRLSCAASGFTFYVNAMGWYRQAPGKERELVAAISSSGTRTYYADSVKGRFTISRDNAKNTVYLQMNSLKPEDTAVYYCAARGQAYSGDRMYYWGQGTQVTVSS”, “high polyreactivity”. With “QVQLVESGGGLVQAGGSLRLSCAASGSNLVHYAIGWYRQAPGKERELVAASSRGGSTNYADSVKGRFTISRDNAKNTVYLQMNSLKPEDTAVYYCAARRPWGEYYWGQGTQVTVSS” the entry was “low polyreactivity”.

As to “QVQLVESGGGLVQAGGSLRLSCAASGLIFYYYTMGWYRQAPGKERELVAAITNGGRTNYADSVKGRFTISRDNAKNTVYLQMNSLKPEDTAVYYCNAVVHKYQRGPYYIKYDYWGQGTQVTVSS”, the “polyreactivity (PSR sort gate)” value is “high polyreactivity”.
